In US11479580B2, “Polypeptide expressed in the stratum corneum and use thereof” (CENTRE NATIONAL DE LA RECHERCHE SCIENTIFIQUE—CNRS, priority 2010, dated 2022):

T1: transglutaminase 2 (UniProt P08587)
T1 construct: transglutaminase purified from guinea pig liver; purchased Sigma T5398; host or cells: guinea pig liver
T1 sequence (P08587 1-690): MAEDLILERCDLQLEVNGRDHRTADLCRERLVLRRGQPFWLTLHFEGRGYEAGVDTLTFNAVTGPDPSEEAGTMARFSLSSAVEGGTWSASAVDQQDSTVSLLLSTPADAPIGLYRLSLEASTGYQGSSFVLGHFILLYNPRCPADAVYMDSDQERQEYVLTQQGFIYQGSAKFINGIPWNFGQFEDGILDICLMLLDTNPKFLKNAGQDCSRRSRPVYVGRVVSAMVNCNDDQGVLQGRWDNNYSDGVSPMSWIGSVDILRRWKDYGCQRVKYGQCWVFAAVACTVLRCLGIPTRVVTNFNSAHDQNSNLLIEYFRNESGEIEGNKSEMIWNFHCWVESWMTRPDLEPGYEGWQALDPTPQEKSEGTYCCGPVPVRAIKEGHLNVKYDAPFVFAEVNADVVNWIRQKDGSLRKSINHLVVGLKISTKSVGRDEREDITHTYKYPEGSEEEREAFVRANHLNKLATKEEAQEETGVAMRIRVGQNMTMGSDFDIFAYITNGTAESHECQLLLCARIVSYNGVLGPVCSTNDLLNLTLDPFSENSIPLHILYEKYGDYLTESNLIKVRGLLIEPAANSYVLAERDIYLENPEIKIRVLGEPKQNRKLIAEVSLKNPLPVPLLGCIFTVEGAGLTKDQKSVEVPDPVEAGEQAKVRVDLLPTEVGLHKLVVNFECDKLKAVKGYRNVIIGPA

T2: transglutaminase 3 (Homo sapiens, UniProt Q08188)
T2 construct: purchased R&D Systems
T2 sequence (Q08188 1-693): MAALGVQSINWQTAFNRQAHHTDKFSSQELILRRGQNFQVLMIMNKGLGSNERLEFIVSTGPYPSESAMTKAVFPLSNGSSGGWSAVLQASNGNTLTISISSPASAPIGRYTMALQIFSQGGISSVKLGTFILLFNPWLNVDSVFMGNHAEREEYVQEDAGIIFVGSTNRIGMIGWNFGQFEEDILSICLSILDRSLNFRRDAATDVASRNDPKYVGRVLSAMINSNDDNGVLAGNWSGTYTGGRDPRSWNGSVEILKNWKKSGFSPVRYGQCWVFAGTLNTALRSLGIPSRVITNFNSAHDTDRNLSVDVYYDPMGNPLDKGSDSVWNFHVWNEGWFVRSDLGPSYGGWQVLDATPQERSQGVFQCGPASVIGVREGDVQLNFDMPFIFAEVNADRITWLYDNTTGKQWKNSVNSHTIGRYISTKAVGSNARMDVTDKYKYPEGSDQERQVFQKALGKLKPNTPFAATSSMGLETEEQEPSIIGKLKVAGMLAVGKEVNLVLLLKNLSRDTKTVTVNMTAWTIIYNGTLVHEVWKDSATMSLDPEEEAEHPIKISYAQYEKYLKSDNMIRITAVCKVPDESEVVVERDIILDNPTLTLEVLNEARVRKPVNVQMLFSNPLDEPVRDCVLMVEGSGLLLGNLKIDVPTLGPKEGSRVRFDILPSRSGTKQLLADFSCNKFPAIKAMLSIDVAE


Tests used:
transglutaminase 2 = biological target: T1, transglutaminase 2; test: In-vitro transglutaminase 2 binding assay (TGM2); assay type: biochemical, guinea pig
Procedure: A binding assay of LCE6A by transglutaminase 2 (transglutaminase purified from guinea pig liver, Sigma T5398) was performed in vitro.
(§1) In a first experiment, the applicant tested the capacity of TGM2 to form bridges between LCE-His and a molecule bearing an amine bond, monodansyl cadaverine (MDC). For this, TGM2 (10 ng/μL) was incubated in the presence of 0.35 μg of LCE6A-His in solution in a buffer 50 mM Tris, 100 mM DTT, pH 7.4, with addition of 10 mM CaCl2 and 500 μM MDC (Fluka). After incubation for 2 h or 18 h at 37° C., the reaction is stopped by adding EDTA to final 25 mM. The negative control corresponds to the same experiment performed in the absence of CaCl2 and in the presence of 100 mM of ETDA after incubation for 18 h. The reaction product is separated by SDS-PAGE 15%, then visualized by illumination with UV.
In a second experiment, the applicant also tested the capacity of TGM2 to form bridges of LCE6A with itself. For this, TGM2 (10 ng/μL) was incubated in the presence of 0.35 μg of LCE6A-His in a buffer 50 mM Tris, 100 mM DTT, pH 7.4, with addition of 10 mM CaCl2. After incubation for 2 h or 18 h at 37° C., the reaction is stopped by adding EDTA to final 25 mM. The negative control corresponds to the same experiment performed in the absence of CaCl2 and in the presence of 100 mM of ETDA after incubation for 18 h. The reaction product is separated by SDS-PAGE 15% and transferred onto a nitrocellulose membrane. The intermolecular bonds are visualized by Western Blot as described above with an anti-His antibody (mouse monoclonal IgG1 “Tetra-His antibody”, Qiagen).

transglutaminase 3 = biological target: T2, transglutaminase 3; test: In-vitro transglutaminase 3 binding assay (TGM3); assay type: biochemical
Procedure: A binding assay of LCE6A by transglutaminase 3 (human recombinant transglutaminase 3, R&D Systems) was performed in vitro. These assays are carried out according to the same experimental protocol as that described in example 4 paragraph 2 with transglutaminase 2.
as §1, with “TGM3” for “TGM2”, “and” for “and a molecule bearing an amine bond,”
In a second experiment, the applicant tested the capacity of TGM3 to form bridges of LCE6A with itself. For this, TGM3 (10 ng/μL) was incubated in the presence of 0.35 μg of LCE6A-His in a buffer 50 mM Tris, 100 mM DTT, pH 7.4, with addition of 10 mM CaCl2. After incubation for 2 h or 18 h at 37° C., the reaction is stopped by adding EDTA to final 25 mM. The negative control corresponds to the same experiment performed in the absence of CaCl2 and in the presence of 100 mM of ETDA after incubation for 18 h. The reaction product is separated by SDS-PAGE 15% and transferred onto a nitrocellulose membrane. The intermolecular bonds are visualized by Western Blot as described above with an anti-His antibody (mouse monoclonal IgG1 “Tetra-His antibody”, Qiagen).

[1] = 100 mM EDTA, absence of calcium, 18 h
[2] = absence of calcium, 100 mM EDTA

| Molecule | capacity of TGM2 to form bridges between LCE-His and MDC, fluorescent bands, negative control (transglutaminase 2; [1]) | capacity of TGM2 to form bridges between LCE-His and monodansyl cadaverine (MDC), fluorescent bands after SDS-PAGE under UV (transglutaminase 2; TGM2 10 ng/μL, 10 mM CaCl2, 500 μM MDC, starting from 2 h of incubation at 37° C.) | capacity of TGM2 to form bridges of LCE6A with itself, Western Blot with anti-His antibody (transglutaminase 2; TGM2 10 ng/μL, 10 mM CaCl2, 2 h or 18 h at 37° C.) | capacity of TGM2 to form bridges of LCE6A with itself, Western Blot, negative control (transglutaminase 2; [2]) | capacity of TGM3 to form bridges between LCE-His and MDC, fluorescent bands, negative control (transglutaminase 3; [1]) | capacity of TGM3 to form bridges between LCE-His and monodansyl cadaverine (MDC), fluorescent bands after SDS-PAGE under UV (transglutaminase 3; TGM3 10 ng/μL, 10 mM CaCl2, 500 μM MDC, starting from 2 h of incubation at 37° C.) | capacity of TGM3 to form bridges of LCE6A with itself, Western Blot with anti-His antibody (transglutaminase 3; TGM3 10 ng/μL, 10 mM CaCl2, 2 h or 18 h at 37° C.) | capacity of TGM3 to form bridges of LCE6A with itself, Western Blot, negative control (transglutaminase 3; [2]) | substrate of transglutaminase 2 (conclusion) (transglutaminase 2) | substrate of transglutaminase 3 (conclusion) (transglutaminase 3) |
| --- | --- | --- | --- | --- | --- | --- | --- | --- | --- | --- |
| LCE6A-His: recombinant LCE6A possessing a C-terminal histidine tag (protein, UniProt A0A183 1-80, looked up, His tag) Late cornified envelope …: MSQQKQQSWKPPNVPKCSPPQRSNPCLAPYSTPCGAPHSEGCHSSSQRPEVQKPRRARQKLRCLSRGTTYHCKEEECEGD | No fluorescent band, apart from that corresponding to the free MDC, is detected | several fluorescent bands were detected | several bands of higher molecular weight migrating to a size equivalent to dimers or multimers of LCE6A-His | Only the band corresponding to monomeric LCE6A-His is detected | No fluorescent band, apart from that corresponding to the free MDC, is detected | several fluorescent bands were detected | several bands of higher molecular weight migrating to a size equivalent to dimers or multimers of LCE6A-His | Only the band corresponding to monomeric LCE6A-His is detected |  |  |
| LCE6A: polypeptide of 80 amino acids of the Late Cornified Envelope family, expressed in the epidermis (protein, listed as Homo sapiens) MSQQKQQSWKPPNVPKCSPPQRSNPCLAPYSTPCGAPHSEGCHSSSQRPEVQKPRRARQKLRCLSRGTTYHCKEEECEGD |  |  |  |  |  |  |  |  | substrate of transglutaminase 2 | substrate of transglutaminase 3 |
